# Data reported in patent US20190106494A1 (published 2019).
# Molecular target: PD-L1 (soluble; 'PD-L1 ligand' of the Octet assay) (UniProt Q9NZQ7 19-238, limits assumed)
# Assay: BLI (Octet RED 96), antibody on anti-human IgG capture sensor, PD-L1 in solution, 1:1 fit
# Procedure: Affinity Measurement: The affinity measurement was conducted with Octet RED 96 (ForteBio) instrument at 30 degree Celsius. Briefly, anti-human IgG capture sensor (AHC from ForteBio cat #18-5060) was equilibrated with assay buffer (1× dilution of 10× Kinetics Buffer (ForteBio, Cat #18-5032). Test antibody samples were diluted to 3 ug/mL and allowed to bind to the sensors for 5 min. The sensors were then washed in assay buffer for 3 minutes, and PD-L1 ligand diluted at different concentrations were allowed to bind to the mAb coated on the sensors for 5 minutes. Afterwards, dissociation was followed for 10 minutes in the assay buffer. The sensors could be regenerated by washing in glycine buffer and assay buffer 3 times. The data were fitted with 1:1 binding model using the ForteBio software.
# PD-L1 (soluble; 'PD-L1 ligand' of the Octet assay), sequence (Q9NZQ7 19-238 limits assumed): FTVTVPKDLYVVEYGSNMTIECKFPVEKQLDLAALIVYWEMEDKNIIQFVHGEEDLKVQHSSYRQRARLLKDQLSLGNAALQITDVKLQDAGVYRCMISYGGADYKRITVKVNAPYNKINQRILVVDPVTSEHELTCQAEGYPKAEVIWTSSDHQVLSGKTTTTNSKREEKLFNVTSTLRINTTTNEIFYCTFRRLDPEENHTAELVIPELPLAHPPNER
binder,measurement,value
"111F1 chimeric anti-PD-L1 antibody (antibody, V domains shown) VH: CQSVKESEGGLFKPTDTLTLTCTVSGIDLNSIAISWVRQAPGNGLEWIGTIGSSGSAYYASWAKSRSTITRNTSENTVTLEMTSLTAADTATYFCAKEILYYGMDLWGPGTLVTVSS VL: DPVMTQTPASVSEPVGGTVTINCQASQSISSYLAWYQQKPGQRPKLLIYAASNVEPGVPSRFRGRGSGTQFTLTISDLECDDAATYYCQSTYGSTGGGDYGNAFGGGTKVVVVR",Kd,0.162 nM
same,koff,6.2e-05 s⁻¹
same,kon,769000 M⁻¹ s⁻¹
